Article PMC4770226

What was measured:
[1] = molecular target: Ku70/Ku80 heterodimer, wild-type (human, UniProt P12956;P13010 1-609;1-732); assay: pull-down
Ku70-5A/Ku80 heterodimer = Ku70-5A/Ku80 heterodimer (human, UniProt P12956;P13010 1-609;1-732, T305A;S306A;T307A;S314A;T316A;Ku70:); assay: pull-down
Sequence of Ku70-5A/Ku80 heterodimer (P12956 whole entry T305A/S306A/T307A/S314A/T316A, chain 1 of 2): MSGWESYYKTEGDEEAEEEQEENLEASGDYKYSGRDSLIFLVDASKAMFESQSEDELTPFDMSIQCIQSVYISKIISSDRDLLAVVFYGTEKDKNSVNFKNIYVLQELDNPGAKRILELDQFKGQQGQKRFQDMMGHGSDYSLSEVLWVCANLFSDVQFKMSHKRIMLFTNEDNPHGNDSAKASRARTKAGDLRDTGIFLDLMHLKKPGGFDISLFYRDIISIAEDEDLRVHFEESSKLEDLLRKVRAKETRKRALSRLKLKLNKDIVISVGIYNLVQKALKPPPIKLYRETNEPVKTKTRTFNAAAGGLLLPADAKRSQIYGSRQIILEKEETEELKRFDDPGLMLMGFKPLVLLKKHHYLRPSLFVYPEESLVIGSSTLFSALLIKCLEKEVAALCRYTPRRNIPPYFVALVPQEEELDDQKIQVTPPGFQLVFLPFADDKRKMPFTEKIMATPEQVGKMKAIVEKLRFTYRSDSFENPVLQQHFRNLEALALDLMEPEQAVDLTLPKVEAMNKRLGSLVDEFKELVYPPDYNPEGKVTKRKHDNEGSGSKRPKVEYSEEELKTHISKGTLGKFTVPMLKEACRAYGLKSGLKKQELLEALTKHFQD
Sequence of Ku70-5A/Ku80 heterodimer (P13010 whole entry, stated change not applied, chain 2 of 2): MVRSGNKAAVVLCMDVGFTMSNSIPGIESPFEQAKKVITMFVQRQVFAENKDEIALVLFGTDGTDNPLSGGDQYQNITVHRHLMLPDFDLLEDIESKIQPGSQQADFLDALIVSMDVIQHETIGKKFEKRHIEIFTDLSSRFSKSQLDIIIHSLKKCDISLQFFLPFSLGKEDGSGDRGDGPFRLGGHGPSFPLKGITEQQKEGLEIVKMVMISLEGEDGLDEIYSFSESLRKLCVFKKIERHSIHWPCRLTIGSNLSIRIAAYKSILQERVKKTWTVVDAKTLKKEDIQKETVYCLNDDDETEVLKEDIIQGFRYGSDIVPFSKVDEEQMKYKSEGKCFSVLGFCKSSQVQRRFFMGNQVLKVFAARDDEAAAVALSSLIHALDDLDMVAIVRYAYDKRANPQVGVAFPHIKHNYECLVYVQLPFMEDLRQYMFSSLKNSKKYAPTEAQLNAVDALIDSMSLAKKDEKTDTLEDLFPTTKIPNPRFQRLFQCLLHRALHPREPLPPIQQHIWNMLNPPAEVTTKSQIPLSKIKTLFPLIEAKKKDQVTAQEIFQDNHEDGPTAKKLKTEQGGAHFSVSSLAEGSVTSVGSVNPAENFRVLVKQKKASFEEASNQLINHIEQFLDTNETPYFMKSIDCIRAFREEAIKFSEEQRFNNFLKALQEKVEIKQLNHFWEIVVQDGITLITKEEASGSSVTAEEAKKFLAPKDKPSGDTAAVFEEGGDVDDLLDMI

Sequence of Ku70/Ku80 heterodimer, wild-type (P12956 whole entry, chain 1 of 2): as the sequence (P12956 whole entry T305A/S306A/T307A/S314A/T316A, chain 1 of 2) above, with A305T, A306S, A307T, A314S, A316T counted along it
Sequence of Ku70/Ku80 heterodimer, wild-type (P13010 whole entry, chain 2 of 2): as the sequence (P13010 whole entry, stated change not applied, chain 2 of 2) above

B1: biotin-labeled forked 22-mer dsDNA (dsDNA)
DNA 1: CGCGCCCAGCTTTCCCAGCTAATAAACTAAAAACTCCTAAGG
DNA 2: CCTTAGGAGTTTTTAGTTTATTGGGCGCG
[1]
  binding result: binds
Ku70-5A/Ku80 heterodimer
  binding result: binds
